In patent publication US8840891 (RSR, dated 2014):
Read-outs that look alike come from different tables or passages of the source.

Legend:
[1] = target: wild type human TSHR (thyrotropin receptor) expressed on CHO cells (human) (UniProt P16473); assay: cell-based or functional assay
[2] = target: TSHR with Asp203 mutated to Alanine expressed on CHO cells (human) (UniProt P16473); assay: cell-based or functional assay
[3] = target: wild type human TSHR (thyrotropin receptor) expressed on CHO cells (human) (UniProt P16473); assay: cell-based or functional assay; remark: listed apart in the source
[4] = target: TSHR with Glu251 mutated to Alanine expressed on CHO cells (human) (UniProt P16473); assay: cell-based or functional assay
[5] = target: wild type human TSHR (thyrotropin receptor) expressed on CHO cells (human) (UniProt P16473); assay: cell-based or functional assay; remark: listed apart in the source
[6] = target: TSHR with Arg274 mutated to Alanine expressed on CHO cells (human) (UniProt P16473); assay: cell-based or functional assay
[7] = target: TSHR with His105 mutated to Alanine expressed on CHO cells (human) (UniProt P16473); assay: cell-based or functional assay
[8] = target: wild type human TSHR (thyrotropin receptor) expressed on CHO cells (human) (UniProt P16473); assay: cell-based or functional assay; remark: listed apart in the source
[9] = target: TSHR coated onto tubes (TSHR coated tubes) (human) (UniProt P16473); assay: TSHR coated tubes
[10] = target: TSHR coated onto tubes (TSHR coated tubes) (human) (UniProt P16473); assay: Scatchard analysis, 125I-5C9 IgG and unlabelled 5C9 IgG in TSHR coated tubes

B1: 5C9 IgG (human monoclonal autoantibody to the TSHR) (antibody, from another filing, V domains shown)
VH: EVQLVESGGGLIQPGGSLRLSCAASGFTVSSNYMSWVRQAPGKGLEWVSVTYSGGSTSYADSVKGRFTISRDNSKNTLYLQMNSLRAEDTAVYYCARGGRYCSSISCYARSGCDYWGQGTLVTVSS
VL: AIQMTQSPSSLSASVGDRVTITCRASQSISNYLNWYQQKPGKAPKLLIYAASSLQSGVPSRFSGSGSGTDFTLTISSLQPEDFATYYCQQSYSSPSTTFGQGTKLEIK
In the case of B1, the Cyclic AMP produced; 5C9 0.01 µg/mL + TSH (fmol/cell well) [1] is reported as 15500, the Cyclic AMP produced; 5C9 0.1 µg/mL + TSH (fmol/cell well) [1] is reported as 4440 and the Cyclic AMP produced; 5C9 1.0 µg/mL + TSH (fmol/cell well) [1] is reported as 1350. It also gave a Cyclic AMP produced; 5C9 10 µg/mL + TSH (fmol/cell well) [1] of 807, a Cyclic AMP produced; 5C9 100 µg/mL + TSH (fmol/cell well) [1] of 367 and a Cyclic AMP produced; 5C9 100 µg/mL only (fmol/cell well) [1] of 330. It also gave a Cyclic AMP produced; 5C9 0.01 µg/mL + TSH (fmol/cell well) [2] of 14700, a Cyclic AMP produced; 5C9 0.1 µg/mL + TSH (fmol/cell well) [2] of 13100 and a Cyclic AMP produced; 5C9 1.0 µg/mL + TSH (fmol/cell well) [2] of 14700. It also gave a Cyclic AMP produced; 5C9 10 µg/mL + TSH (fmol/cell well) [2] of 12600, a Cyclic AMP produced; 5C9 100 µg/mL + TSH (fmol/cell well) [2] of 12700 and a Cyclic AMP produced; 5C9 100 µg/mL only (fmol/cell well) [2] of 1370. The Mutated/wild type (%); 5C9 0.01 µg/mL + TSH [2] was 95%, the Mutated/wild type (%); 5C9 0.1 µg/mL + TSH [2] was 296% and the Mutated/wild type (%); 5C9 1.0 µg/mL + TSH [2] was 1090%. For the same binder, the Mutated/wild type (%); 5C9 10 µg/mL + TSH [2] was 1570%, the Mutated/wild type (%); 5C9 100 µg/mL + TSH [2] was 3450% and the Mutated/wild type (%); 5C9 100 µg/mL only [2] was 415%. For the same binder, the Cyclic AMP produced; 5C9 0.01 µg/mL + TSH (fmol/cell well) [3] was 21200, the Cyclic AMP produced; 5C9 0.1 µg/mL + TSH (fmol/cell well) [3] was 8640 and the Cyclic AMP produced; 5C9 1.0 µg/mL + TSH (fmol/cell well) [3] was 915. For the same binder, the Cyclic AMP produced; 5C9 10 µg/mL + TSH (fmol/cell well) [3] was 752, the Cyclic AMP produced; 5C9 100 µg/mL + TSH (fmol/cell well) [3] was 496 and the Cyclic AMP produced; 5C9 100 µg/mL only (fmol/cell well) [3] was 460. It also gave a Cyclic AMP produced; 5C9 0.01 µg/mL + TSH (fmol/cell well) [4] of 22000, a Cyclic AMP produced; 5C9 0.1 µg/mL + TSH (fmol/cell well) [4] of 15500 and a Cyclic AMP produced; 5C9 1.0 µg/mL + TSH (fmol/cell well) [4] of 5240. It also gave a Cyclic AMP produced; 5C9 10 µg/mL + TSH (fmol/cell well) [4] of 1880, a Cyclic AMP produced; 5C9 100 µg/mL + TSH (fmol/cell well) [4] of 1170 and a Cyclic AMP produced; 5C9 100 µg/mL only (fmol/cell well) [4] of 406. For the same binder, the Mutated/wild type (%); 5C9 0.01 µg/mL + TSH [4] was 104%, the Mutated/wild type (%); 5C9 0.1 µg/mL + TSH [4] was 180% and the Mutated/wild type (%); 5C9 1.0 µg/mL + TSH [4] was 573%. For the same binder, the Mutated/wild type (%); 5C9 10 µg/mL + TSH [4] was 250%, the Mutated/wild type (%); 5C9 100 µg/mL + TSH [4] was 236% and the Mutated/wild type (%); 5C9 100 µg/mL only [4] was 88%. For the same binder, the Cyclic AMP produced; 5C9 0.01 µg/mL + TSH (fmol/cell well) [5] was 16300, the Cyclic AMP produced; 5C9 0.1 µg/mL + TSH (fmol/cell well) [5] was 5000 and the Cyclic AMP produced; 5C9 1.0 µg/mL + TSH (fmol/cell well) [5] was 808. For the same binder, the Cyclic AMP produced; 5C9 10 µg/mL + TSH (fmol/cell well) [5] was 684, the Cyclic AMP produced; 5C9 100 µg/mL + TSH (fmol/cell well) [5] was 246 and the Cyclic AMP produced; 5C9 100 µg/mL only (fmol/cell well) [5] was 111. The Cyclic AMP produced; 5C9 0.01 µg/mL + TSH (fmol/cell well) [6] was 9560, the Cyclic AMP produced; 5C9 0.1 µg/mL + TSH (fmol/cell well) [6] was 1320 and the Cyclic AMP produced; 5C9 1.0 µg/mL + TSH (fmol/cell well) [6] was 177. The Cyclic AMP produced; 5C9 10 µg/mL + TSH (fmol/cell well) [6] was 108, the Cyclic AMP produced; 5C9 100 µg/mL + TSH (fmol/cell well) [6] was 17 and the Cyclic AMP produced; 5C9 100 µg/mL only (fmol/cell well) [6] was 34. The Mutated/wild type (%); 5C9 0.01 µg/mL + TSH [6] was 58%, the Mutated/wild type (%); 5C9 0.1 µg/mL + TSH [6] was 26% and the Mutated/wild type (%); 5C9 1.0 µg/mL + TSH [6] was 22%. It also gave a Mutated/wild type (%); 5C9 10 µg/mL + TSH [6] of 16%, a Mutated/wild type (%); 5C9 100 µg/mL + TSH [6] of 7% and a Mutated/wild type (%); 5C9 100 µg/mL only [6] of 31%. It also gave a Cyclic AMP produced; 5C9 0.01 µg/mL + TSH (fmol/cell well) [7] of 24200, a Cyclic AMP produced; 5C9 0.1 µg/mL + TSH (fmol/cell well) [7] of 2870 and a Cyclic AMP produced; 5C9 1.0 µg/mL + TSH (fmol/cell well) [7] of 561. For the same binder, the Cyclic AMP produced; 5C9 10 µg/mL + TSH (fmol/cell well) [7] was 434, the Cyclic AMP produced; 5C9 100 µg/mL + TSH (fmol/cell well) [7] was 134 and the Cyclic AMP produced; 5C9 100 µg/mL only (fmol/cell well) [7] was 520. It also gave a Mutated/wild type (%); 5C9 0.01 µg/mL + TSH [7] of 145%, a Mutated/wild type (%); 5C9 0.1 µg/mL + TSH [7] of 82% and a Mutated/wild type (%); 5C9 1.0 µg/mL + TSH [7] of 124%. It also gave a Mutated/wild type (%); 5C9 10 µg/mL + TSH [7] of 150%, a Mutated/wild type (%); 5C9 100 µg/mL + TSH [7] of 60% and a Mutated/wild type (%); 5C9 100 µg/mL only [7] of 222%. It also gave a Cyclic AMP produced; 5C9 0.01 µg/mL + TSH (fmol/cell well) [8] of 16700, a Cyclic AMP produced; 5C9 0.1 µg/mL + TSH (fmol/cell well) [8] of 3510 and a Cyclic AMP produced; 5C9 1.0 µg/mL + TSH (fmol/cell well) [8] of 454. For the same binder, the Cyclic AMP produced; 5C9 10 µg/mL + TSH (fmol/cell well) [8] was 289, the Cyclic AMP produced; 5C9 100 µg/mL + TSH (fmol/cell well) [8] was 223 and the Cyclic AMP produced; 5C9 100 µg/mL only (fmol/cell well) [8] was 234. It also gave an average % binding of labelled tracer [9] of 20% and a Ka [10] of 4e+10 M⁻¹.
